Assay results: paper doi:10.1101/2020.10.01.322594

Biological target: Phaeodactylum tricornutum diaminopimelate decarboxylase (PtLYSA), amino acids 39-476 (Phaeodactylum tricornutum)
Assay: SEC

Q: How did the stoichiometry N turn out when “Phaeodactylum tricornutum diaminopimelate decarboxylase (PtLYSA), amino acids 39-476 (enzyme)” was run?
A: Its stoichiometry N is 2.
